B1: Cytochrome P450 2S1 (Homo sapiens), Q96SQ9 (parent)
chain: MEATGTWALLLALALLLLLTLALSGTRARGHLPPGPTPLPLLGNLLQLRPGALYSGLMRLSKKYGPVFTIYLGPWRPVVVLVGQEAVREALGGQAEEFSGRGTVAMLEGTFDGHGVFFSNGERWRQLRKFTMLALRDLGMGKREGEELIQAEARCLVETFQGTEGRPFDPSLLLAQATSNVVCSLLFGLRFSYEDKEFQAVVRAAGGTLLGVSSQGGQTYEMFSWFLRPLPGPHKQLLHHVSTLAAFTVRQVQQHQGNLDASGPARDLVDAFLLKMAQEEQNPGTEFTNKNMLMTVIYLLFAGTMTVSTTVGYTLLLLMKYPHVQKWVREELNRELGAGQAPSLGDRTRLPYTDAVLHEAQRLLALVPMGIPRTLMRTTRFRGYTLPQGTEVFPLLGSILHDPNIFKHPEEFNPDRFLDADGRFRKHEAFLPFSLGKRVCLGEGLAKAELFLFFTTILQAFSLESPCPPDTLSLKPTVSGLFNIPPAFQLQVRPTDLHSTTQTR
partner: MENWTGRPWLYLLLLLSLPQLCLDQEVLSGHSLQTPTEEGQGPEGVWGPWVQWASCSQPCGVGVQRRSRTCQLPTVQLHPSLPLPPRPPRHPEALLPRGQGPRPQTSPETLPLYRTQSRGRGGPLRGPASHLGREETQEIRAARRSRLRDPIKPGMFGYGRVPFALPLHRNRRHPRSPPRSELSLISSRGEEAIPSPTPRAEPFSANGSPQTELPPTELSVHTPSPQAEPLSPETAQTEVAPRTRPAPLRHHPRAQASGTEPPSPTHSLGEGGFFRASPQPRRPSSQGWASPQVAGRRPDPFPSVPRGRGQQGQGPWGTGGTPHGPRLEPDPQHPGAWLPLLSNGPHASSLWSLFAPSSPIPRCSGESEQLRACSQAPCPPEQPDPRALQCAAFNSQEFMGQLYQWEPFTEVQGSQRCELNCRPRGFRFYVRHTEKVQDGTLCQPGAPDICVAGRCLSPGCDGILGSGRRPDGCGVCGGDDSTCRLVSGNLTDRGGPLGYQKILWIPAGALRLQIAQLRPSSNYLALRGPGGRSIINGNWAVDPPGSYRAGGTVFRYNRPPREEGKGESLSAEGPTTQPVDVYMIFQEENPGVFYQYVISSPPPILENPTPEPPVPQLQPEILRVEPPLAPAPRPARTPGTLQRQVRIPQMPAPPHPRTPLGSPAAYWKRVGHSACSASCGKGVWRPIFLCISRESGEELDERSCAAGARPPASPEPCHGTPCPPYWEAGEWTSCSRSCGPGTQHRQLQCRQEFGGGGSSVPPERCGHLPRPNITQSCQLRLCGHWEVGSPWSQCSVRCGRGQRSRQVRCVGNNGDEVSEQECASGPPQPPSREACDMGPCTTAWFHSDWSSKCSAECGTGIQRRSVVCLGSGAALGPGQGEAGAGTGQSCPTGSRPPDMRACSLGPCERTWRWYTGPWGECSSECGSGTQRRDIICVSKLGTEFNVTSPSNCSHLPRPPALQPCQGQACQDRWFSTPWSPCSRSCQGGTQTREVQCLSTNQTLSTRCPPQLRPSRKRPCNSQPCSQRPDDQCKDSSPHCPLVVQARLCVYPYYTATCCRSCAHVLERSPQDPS
B2: Protein LDOC1 (Homo sapiens), O95751 (parent)
chain: MVDELVLLLHALLMRHRALSIENSQLMEQLRLLVCERASLLRQVRPPSCPVPFPETFNGESSRLPEFIVQTASYMLVNENRFCNDAMKVAFLISLLTGEAEEWVVPYIEMDSPILGDYRAFLDEMKQCFGWDDDEDDDDEEEEDDY
partner: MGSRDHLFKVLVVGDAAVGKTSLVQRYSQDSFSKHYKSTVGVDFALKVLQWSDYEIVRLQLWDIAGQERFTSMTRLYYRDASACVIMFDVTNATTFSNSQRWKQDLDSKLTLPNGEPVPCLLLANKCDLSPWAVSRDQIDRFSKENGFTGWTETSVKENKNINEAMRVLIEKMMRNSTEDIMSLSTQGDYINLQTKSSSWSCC
B3: Vesicle transport through interaction with t-SNAREs homolog 1B (Homo sapiens), Q9UEU0 (parent)
chain: MASSAASSEHFEKLHEIFRGLHEDLQGVPERLLGTAGTEEKKKLIRDFDEKQQEANETLAEMEEELRYAPLSFRNPMMSKLRNYRKDLAKLHREVRSTPLTATPGGRGDMKYGIYAVENEHMNRLQSQRAMLLQGTESLNRATQSIERSHRIATETDQIGSEIIEELGEQRDQLERTKSRLVNTSENLSKSRKILRSMSRKVTTNKLLLSIIILLELAILGGLVYYKFFRSH
partner: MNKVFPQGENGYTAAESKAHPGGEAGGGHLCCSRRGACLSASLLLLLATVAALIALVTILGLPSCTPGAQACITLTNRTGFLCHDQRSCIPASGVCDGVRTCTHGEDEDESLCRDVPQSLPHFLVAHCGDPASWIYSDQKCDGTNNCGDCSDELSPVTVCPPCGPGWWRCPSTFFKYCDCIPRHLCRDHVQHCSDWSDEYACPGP
B4: Centrosomal protein of 55 kDa (Homo sapiens), Q53EZ4 (parent)
chain: MSSRSTKDLIKSKWGSKPSNSKSETTLEKLKGEIAHLKTSVDEITSGKGKLTDKERHRLLEKIRVLEAEKEKNAYQLTEKDKEIQRLRDQLKARYSTTTLLEQLEETTREGERREQVLKALSEEKDVLKQQLSAATSRIAELESKTNTLRLSQTVAPNCFNSSINNIHEMEIQLKDALEKNQQWLVYDQQREVYVKGLLAKIFELEKKTETAAHSLPQQTKKPESEGYLQEEKQKCYNDLLASAKKDLEVERQTITQLSFELSEFRRKYEETQKEVHNLNQLLYSQRRADVQHLEDDRHKTEKIQKLREENDIARGKLEEEKKRSEELLSQVQFLYTSLLKQQEEQTRVALLEQQMQACTLDFENEKLDRQHVQHQLHVILKELRKARNQITQLESLKQLHEFAITEPLVTFQGETENREKVAASPKSPTAALNESLVECPKCNIQYPATEHRDLLVHVEYCSK
partner: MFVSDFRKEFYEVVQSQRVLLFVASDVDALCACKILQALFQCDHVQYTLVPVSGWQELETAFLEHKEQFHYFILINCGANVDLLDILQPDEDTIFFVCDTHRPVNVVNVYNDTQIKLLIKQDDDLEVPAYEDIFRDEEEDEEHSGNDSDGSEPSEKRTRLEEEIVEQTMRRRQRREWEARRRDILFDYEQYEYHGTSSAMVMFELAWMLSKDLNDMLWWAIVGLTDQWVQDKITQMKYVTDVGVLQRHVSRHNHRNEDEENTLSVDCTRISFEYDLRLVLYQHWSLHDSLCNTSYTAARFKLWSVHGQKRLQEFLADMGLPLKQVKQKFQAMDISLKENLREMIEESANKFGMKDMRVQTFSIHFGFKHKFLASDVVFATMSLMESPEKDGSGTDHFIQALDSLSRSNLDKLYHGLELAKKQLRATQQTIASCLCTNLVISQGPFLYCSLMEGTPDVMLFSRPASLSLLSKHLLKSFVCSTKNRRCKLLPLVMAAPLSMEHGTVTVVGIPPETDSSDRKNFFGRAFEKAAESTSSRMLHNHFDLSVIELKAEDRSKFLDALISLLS
B5: Notch homolog 2 N-terminal-like protein A (Homo sapiens), Q7Z3S9 (parent)
chain: MCVTYHNGTGYCKCPEGFLGEYCQHRDPCEKNRCQNGGTCVAQAMLGKATCRCASGFTGEDCQYSTSHPCFVSRPCLNGGTCHMLSRDTYECTCQVGFTGKECQWTDACLSHPCANGSTCTTVANQFSCKCLTGFTGQKCETDVNECDIPGHCQHGGTCLNLPGSYQCQCLQGFTGQYCDSLYVPCAPSPCVNGGTCRQTGDFTFECNCLPETVRRGTELWERDREVWNGKEHDEN
partner: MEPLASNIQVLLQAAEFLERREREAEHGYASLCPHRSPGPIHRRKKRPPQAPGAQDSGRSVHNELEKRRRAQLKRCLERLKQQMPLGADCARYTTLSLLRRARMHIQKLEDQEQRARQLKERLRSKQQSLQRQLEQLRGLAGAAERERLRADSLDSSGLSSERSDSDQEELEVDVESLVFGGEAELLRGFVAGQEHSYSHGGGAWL
B6: Keratin-associated protein 12-1 (Homo sapiens), P59990 (parent)
chain: MCHTSCSSGCQPACCAPSPCQASCYIPVGCQSSVCVPVSFKPAVCVPVRCQSSVCVPVSCRPVVYAAPSCQSSGCCQPSCTSVLCRPISCSTPSCC

Variants of: B1
Conditions: with atl4_human ADAMTSL4, Q6UY14

effect of a mutation on the interaction	Variant
disrupting interaction strength	R166H

Variants of: B2
Conditions: with rab7l_human RAB29, O14966

effect of a mutation on the interaction	Variant
disrupting interaction strength	L12H

Variants of: B3
Conditions: with lrad1_human LDLRAD1, Q5T700

effect of a mutation on the interaction	Variant
with no effect	R124Q
with no effect	R176H

Variants of: B4
Conditions: with cdc45_human CDC45, O75419

effect of a mutation on the interaction	Variant
with no effect	A244P
with no effect	H57Q
with no effect	C236R
with no effect	R348K

Variants of: B5
Conditions: with mad3_human MXD3, Q9BW11

effect of a mutation on the interaction	Variant
with no effect	R74Q
with no effect	A115T

Variants of: B6
Conditions: with meox2_human MEOX2, P50222
meox2_human MEOX2, P50222, sequence (P50222 whole entry): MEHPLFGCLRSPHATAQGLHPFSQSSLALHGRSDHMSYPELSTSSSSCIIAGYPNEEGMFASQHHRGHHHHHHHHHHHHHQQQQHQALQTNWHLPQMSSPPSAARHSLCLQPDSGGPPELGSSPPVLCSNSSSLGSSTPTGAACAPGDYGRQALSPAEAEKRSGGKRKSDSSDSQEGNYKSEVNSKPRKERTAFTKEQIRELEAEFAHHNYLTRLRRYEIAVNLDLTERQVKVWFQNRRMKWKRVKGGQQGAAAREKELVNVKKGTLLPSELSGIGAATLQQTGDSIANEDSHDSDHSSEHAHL

effect of a mutation on the interaction	Variant
with no effect	A16T

Reference: IntAct's records for PubMed 31515488
